Measurements published in PMC10686819.
Several values for one entry are separate records, joined by “and”; a condition that tells them apart may be missing. Equal entries are not always repeated. Where two headings read alike, the source gives them in different places.

Columns and labels:
Experiment in all cases: cryo-EM structure
[1] = target: B41 HT2 soluble Env heterotrimer (two B41 SOSIP.664 protomers, one D7324-tagged B41-D368R SOSIP.664 protomer) (HIV-1 (clade B, B41))
[2] = target: BG505 HT2 soluble Env heterotrimer (two BG505 SOSIP.664 protomers, one D7324-tagged BG505-D368R SOSIP.664 protomer) (HIV-1 (clade A, BG505))
[3] = target: BG505 HT1 soluble Env heterotrimer (two BG505-D368R SOSIP.664 protomers, one D7324-tagged BG505 SOSIP.664 protomer) (HIV-1 (clade A, BG505))
[4] = target: BG505 HT2 soluble Env heterotrimer (two BG505 SOSIP.664 protomers, one D7324-tagged BG505-D368R SOSIP.664 protomer) (HIV-1 (clade A, BG505)); remark: listed apart in the source
[5] = target: BG505 HT1 soluble Env heterotrimer (two BG505-D368R SOSIP.664 protomers, one D7324-tagged BG505 SOSIP.664 protomer) (HIV-1 (clade A, BG505)); remark: listed apart in the source

Row | Substance | stoichiometry N [1] | stoichiometry N [2] | stoichiometry N [3] | stoichiometry N [4] | stoichiometry N [5]
1 | CD4 (as used in the cryo-EM complex with B41 HT2; version not stated) (from UniProt P01730 26-396) (receptor) | 2 |  |  |  | 
2 | CD4 D1-D4 (domains 1-4), soluble (receptor) |  | 2 and 1 | 1 | 3 | 3
